Results taken from the supplement of paper PMC10567573.
± gives the standard deviation.

Test: protein stability index of a GFP-peptide fusion (GPS, HEK-293T) (PSI 1-6); higher = more stable
[1] = treatment: DMSO, c terminus: a fixed tail appended
[2] = treatment: MLN4924 1 uM, 8 h, c terminus: a fixed tail appended
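Further: 24-mer peptide tiles fused after GFP, lentivirally expressed, FACS-sorted into six equal bins by GFP/DsRed ratio, decoded by Illumina sequencing, PSI is the read-weighted mean bin number.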

| Sequence | protein stability index [1] | protein stability index [2] | protein stability index (treatment: DMSO, c terminus: native) | protein stability index (treatment: MLN4924 1 uM, 8 h, c terminus: native) |
| --- | --- | --- | --- | --- |
| RKISSLSFTLEEEEEGGEEEEEAA [FAM50A] | 5.53 ± 0.26 | 5.33 ± 0.26 | – | – |
| RKKSADVLALADEAGYYFFNGNYK [ADAMTSL2] | 3 ± 0.22 | 3.05 ± 0.33 | – | – |
| RKLLSPVSREENREDKATIKCETS [PPFIA4] | 5.11 ± 0.27 | 5.14 ± 0.26 | – | – |
| RKRNPSRKKQHICDECGKHFSQGS [ZNF24] | 3.91 ± 0.19 | 4.12 ± 0.097 | – | – |
| RKSLALDIVDEDVKLMMSTLPKSL [MYBL2] | 2.98 ± 0.27 | 2.76 ± 0.29 | – | – |
| RLCGGKGGFGSMLRALGAQIEKTT [SDE2] | 2.59 ± 0.23 | 2.55 ± 0.45 | – | – |
| RLIRELAEFEKLSDQVKISEEALR [SAT2] | 3.16 ± 0.35 | 3.43 ± 0.3 | – | – |
| RLKTRSWAGERSRRELCSRLQDQ [CDC25B] | – | – | 4.02 ± 0.17 | 4.13 ± 0.15 |
| RLVELAGQSLLKDEALAIAALELL [PRAME] | 2.17 ± 0.47 | 2.02 ± 0.44 | – | – |
| RMDFAAKLMKNIRFPLMTPQELIN [KLHL13] | 2.01 ± 0.31 | 1.94 ± 0.27 | – | – |
| RNARIVHLVEETRIHVLPSLNPDG [CPXM2] | 2.97 ± 0.037 | 3.2 ± 0.24 | – | – |
| RNQYEALVETNRREVEQWFATQTE [KRT33B] | 4.37 ± 0.28 | 4.27 ± 0.48 | – | – |
| RNTLNQPCSGSVSLQPRRSIAFRL [GMCL1] | 2.41 ± 0.29 | 2.36 ± 0.11 | – | – |
| RPALAQQAQGARAGGSARRPDTGD [GMCL1] | 5.28 ± 0.19 | 5.33 ± 0.13 | – | – |
| RPAQAIGTQPRATKHKCRQLTKAS [SPACA9] | 4.47 ± 0.16 | 4.44 ± 0.34 | – | – |
| RPGVQDAALIEAIQDRLSNTLQTY [VDR] | 2.78 ± 0.3 | 3.09 ± 0.28 | – | – |
| RPNLETYYERVLKRKTFNKVLGHV [GDAP1] | 2.46 ± 0.092 | 2.47 ± 0.32 | – | – |
| RPQPRGLLGWGYYLIMLPFRFTYY [FAF2] | 3.86 ± 0.18 | 3.48 ± 0.077 | – | – |
| RQHHHQSSFPGSLPQETNLTLKVC | 2.89 ± 0.48 | 3.34 ± 0.56 | – | – |
| RQNLKLLVEETSCQQNMIQELIET [CEP70] | 3.42 ± 0.16 | 3.43 ± 0.45 | – | – |
| RQRLLADLLHNVSQNIAAETRAED [DFFB] | 4.1 ± 0.36 | 4.09 ± 0.44 | – | – |
| RQVKHYRIFRLPNNWYYISPRLTF [SLA] | 2.43 ± 0.52 | 2.14 ± 0.069 | – | – |
| RRFIQSCPIIRIPNRFLRGHRPPP [KLHDC10] | 2.67 ± 0.18 | 2.73 ± 0.43 | – | – |

| Sequence | protein stability index [1] | protein stability index [2] | protein stability index (treatment: DMSO, c terminus: native) | protein stability index (treatment: MLN4924 1 uM, 8 h, c terminus: native) |
| --- | --- | --- | --- | --- |
| RRSSSKCIHDHHCGSQLSSTKGSR [NETO1] | 3.74 ± 0.33 | 3.92 ± 0.36 | – | – |
| RRVRLELWDTSGQGRFCTIFRSYS [RAB40C] | 2.35 ± 0.5 | 1.99 ± 0.29 | – | – |
| RSEEAVQVLIKHSADVNARDKNWQ [ANKRD44] | 4.17 ± 0.22 | 4.44 ± 0.33 | – | – |
| RSEFTLMAKRIGKDLSNTFAKLEK [STX5] | 2.51 ± 0.33 | 2.31 ± 0.33 | – | – |
| RSLANGPNAGEQPGQVAGADFESE [EID1] | 5.22 ± 0.24 | 5.74 ± 0.18 | – | – |
| RSLQDLARIAIRGTIKKIIHQETV [PCMTD2] | 2.39 ± 0.32 | 2.52 ± 0.65 | – | – |
| RSTCVYVCALSALPAGPLPAPLLV [PLEKHN1] | 3.18 ± 1.1 | 2.88 ± 0.71 | – | – |
| RTPLIKLSPKKTWEGFIGGFFSTV [CDS1] | 2.03 ± 0.16 | 1.88 ± 0.37 | – | – |
| RTSRKFLACRLTPDMETKLLFMTS [INTS3] | 2.49 ± 0.37 | 2.33 ± 0.39 | – | – |
| RTVGFEEQASAFQEQEIDGKSLLL [SAMD13] | 4.55 ± 0.2 | 4.85 ± 0.18 | – | – |
| RVMKVEDREGPSSSKLVTKKAPQP [HDAC6] | 4.93 ± 0.26 | 5.14 ± 0.077 | – | – |
| RVQVLKNEVRRGSPVLLGWVEQAY [TIAF1] | 2.37 ± 0.18 | 2.21 ± 0.37 | – | – |
| RVRFGQQKRYQDWFQRQYLSTPDS [INTS3] | 2.85 ± 0.23 | 3.07 ± 0.14 | – | – |
| RVYLATDDPSLLKEAKTKYPNYEF [FUT8] | 2.95 ± 0.36 | 2.9 ± 0.28 | – | – |
| RWDMADNEQVLTTEHEKKQKLETD [YJU2B] | 5.39 ± 0.32 | 5.37 ± 0.21 | – | – |
| RYDPQTNEWRMVASMSKRRCGVGV [KLHL20] | 2.71 ± 0.16 | 2.75 ± 0.3 | – | – |
| RYVFEAVIRWIAHDTEIRKVHMKD [GAN] | 2.74 ± 0.84 | 2.4 ± 0.65 | – | – |
| SALAPSVFKQAKDKVSDGVTKSPE [MAP2] | 5.44 ± 0.22 | 5.44 ± 0.18 | – | – |
| SALEGRADTTTGSAAGPPLSEDDK [EHMT1] | 5.14 ± 0.83 | 5.38 ± 0.43 | – | – |
| SALQSLLQHLIGLSNLTHVLYPVP [PRAME] | 3.36 ± 0.28 | 3.2 ± 0.16 | – | – |
| SARIGQNCSIGPNVSLGPGVVVED [GMPPB] | 4.49 ± 0.33 | 4.58 ± 0.23 | – | – |
| SARWLEVLRTYLELVLCVLVSIRN [FBXO33] | 2.33 ± 0.31 | 2.16 ± 0.21 | – | – |
| SCMASLWTAPLVMRTTNLDNRCKL [CDC25A] | 2.33 ± 0.084 | 2.43 ± 0.15 | – | – |

| Sequence | protein stability index [1] | protein stability index [2] | protein stability index (treatment: DMSO, c terminus: native) | protein stability index (treatment: MLN4924 1 uM, 8 h, c terminus: native) |
| --- | --- | --- | --- | --- |
| SCRRKQEDDRDGLLAEREQEEAIA [TMEM106C] | 5.45 ± 0.33 | 5.42 ± 0.091 | – | – |
| SDDSDEDEPCAISGKWTFQRDSKR [DLC1] | 5 ± 0.13 | 4.83 ± 0.069 | – | – |
| SDKIGSTIDDTISKFRRKDREDSP [CLINT1] | 5.1 ± 0.4 | 5.21 ± 0.3 | – | – |
| SDQVKISEEALRADGFGDNPFYHC [SAT2] | 4.16 ± 0.28 | 4.25 ± 0.24 | – | – |
| SDSEANGFAERRIDKFGFIVGSQG [TBC1D10A] | 4.14 ± 0.35 | 4.07 ± 0.34 | – | – |
| SDSVIMTGSYNNFFRMFDRNTKRD [PPP2R2B] | 3.55 ± 0.18 | 3.63 ± 0.19 | – | – |
| SDVICDFPFQAMVQFHRHHGQEGS [GMPPB] | 3.12 ± 0.32 | 3.19 ± 0.28 | – | – |
| SEEAPGGTELIQTPLASSTDHQTP [HDAC6] | 5.49 ± 0.4 | 5.51 ± 0.34 | – | – |
| SEIEMAKAQRDYELKKAAYDIEVN [FLOT1] | 4.89 ± 0.29 | 5.02 ± 0.17 | – | – |
| SEMAEDLCKIGSERSLVLDRLASN [IKZF1] | 4.56 ± 0.38 | 4.73 ± 0.2 | – | – |
| SFGGEWSAPDTMKRYSMYLTPKGG [TRIM29] | 3.09 ± 0.51 | 3.09 ± 0.48 | – | – |
| SFLRDHSYATEADIISTVEFNHTG [PPP2R2B] | 3.65 ± 0.15 | 3.58 ± 0.19 | – | – |
| SFQGCMAQLFMDHLFAGAEVILLV [OR4A15] | 3.28 ± 1.2 | 3.18 ± 0.91 | – | – |
| SFVCWSRGFMEMNGRGELVESLKR [AUP1] | 2.36 ± 0.51 | 2.2 ± 0.27 | – | – |
| SGLEKEVQRLTSRAARDYKIQNHG [FCHSD1] | 3.89 ± 0.16 | 3.61 ± 0.38 | – | – |
| SGSAVSTAPQQKPIGKISKNKKKK [SRPK2] | 4.77 ± 0.43 | 5.07 ± 0.2 | – | – |
| SGSGSGPGCGSVPGSGSGPGPGSG [SPAG8] | 5.08 ± 0.24 | 5.12 ± 0.12 | – | – |
| SGTDAEETILNAFKMLDPDGKGKI [MYL5] | 4.51 ± 0.18 | 4.31 ± 0.17 | – | – |
| SKIDHYVLEYRRTNFEGPPRLKED [FSD1] | 3.52 ± 0.15 | 3.63 ± 0.087 | – | – |
| SKKTFQITKQGDGVDFLSWFLNAL [USP39] | 2.35 ± 0.16 | 2.29 ± 0.24 | – | – |
| SLAETECRYATQLQQIQGLIGGLE [KRT15] | 2.83 ± 0.24 | 2.91 ± 0.32 | – | – |
| SLCSLLESQSTSLRGSYNSLHDGS [LURAP1L] | 2.8 ± 0.11 | 2.87 ± 0.41 | – | – |
| SLELPKAIQDQLPRLQQLLKTLEE [FANCE] | 2.66 ± 0.32 | 2.85 ± 0.24 | – | – |

| Sequence | protein stability index [1] | protein stability index [2] | protein stability index (treatment: DMSO, c terminus: native) | protein stability index (treatment: MLN4924 1 uM, 8 h, c terminus: native) |
| --- | --- | --- | --- | --- |
| SLEPFRPQQAPQDDGSQDPEVLDR [PWWP2B] | 5.51 ± 0.16 | 5.53 ± 0.14 | – | – |
| SLFSYGLRESIASYLSLTSEDNTS [SLA] | 2.49 ± 0.19 | 2.61 ± 0.22 | – | – |
| SLGGIRACTLTVFPPEETTPSPSR [KLHL13] | 3.63 ± 0.21 | 3.77 ± 0.17 | – | – |
| SLPASSYSQDPVYANGGLNYSYRG [NOL4L] | 3.44 ± 0.12 | 3.62 ± 0.15 | – | – |
| SLRDKVLQLQKGSDTEAQCEVMQE [INTS3] | 5.11 ± 0.23 | 5.08 ± 0.2 | – | – |
| SLSLRLPHQPVTAITRVSDRFSGE [SMTNL2] | 3.8 ± 0.28 | 4.16 ± 0.1 | – | – |
| SLTRSNRHRLRWHSFQSSHRPSLN [DLC1] | 3.05 ± 0.14 | 3.41 ± 0.31 | – | – |
| SNAMLVGDKLKFLSMLLTLKCEMN [ACSBG2] | 2.66 ± 0.62 | 2.52 ± 0.052 | – | – |
| SNCCFTFSGHFLCTSSWDKNLKIW [WDR88] | 2.22 ± 0.97 | 2.3 ± 0.4 | – | – |
| SNCLGIRDFAETHNCVDLMQAAEV [KLHL12] | 4.05 ± 0.64 | 3.68 ± 0.59 | – | – |
| SNDGARRQFEFYLEEMILPLMVAS [BTBD10] | 2.25 ± 0.078 | 2.2 ± 0.073 | – | – |
| SNFNYFYHRETEGEEQSQYMHVGS [KCNA3] | 3.89 ± 0.08 | 3.88 ± 0.48 | – | – |
| SPNRSLPSPGVLCGSARPKPYDPP [ATF4] | 3.67 ± 0.19 | 3.72 ± 0.26 | – | – |
| SPWDQEERPAQRDCSFPGLPRHQD [TRAF3IP2] | 5.48 ± 0.23 | 5.36 ± 0.38 | – | – |
| SQKVLGLNEDPLKWWSDRLALFPL [ZBED1] | – | 2.14 ± 0.63 | – | – |
| SQPAVELVSGSQSALGPPPAASNS [CLINT1] | 5.04 ± 0.31 | 5.21 ± 0.33 | – | – |
| SRIAKGGVDHTKMSLHGASGGHER [BTBD10] | 4.5 ± 0.19 | 4.43 ± 0.14 | – | – |
| SRKGELTPLPETGYWRVRLWNGDK [TRIM39] | 2.63 ± 0.057 | 2.58 ± 0.36 | – | – |
| SRVTDPVGDIVSFMHSFEEKYGRA [FAF2] | 3.34 ± 0.25 | 3.59 ± 0.36 | – | – |
| SSCYPLIPSTPEEVSADDETPNPP [MAGEA10] | 5.46 ± 0.31 | 5.44 ± 0.27 | – | – |
